Reference: publication PMC9751095
pKd: −log10 of the molar value.

Biological target: Myc-TRAP1 (human) (UniProt Q12931)
Experiment: SPR; printed as "Ka 26 µM"
Conditions: enzyme; chains chain; remark: other sources report otherwise

Sequence of purified recombinant human cyclophilin D, P30405 30-207 (P30405 30-207): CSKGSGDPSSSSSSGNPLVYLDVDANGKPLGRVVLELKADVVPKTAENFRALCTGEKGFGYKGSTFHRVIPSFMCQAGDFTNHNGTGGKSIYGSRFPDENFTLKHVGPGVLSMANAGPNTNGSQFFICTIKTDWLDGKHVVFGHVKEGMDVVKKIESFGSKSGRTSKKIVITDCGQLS
Sequence of Myc-TRAP1 (human) (Q12931 60-704): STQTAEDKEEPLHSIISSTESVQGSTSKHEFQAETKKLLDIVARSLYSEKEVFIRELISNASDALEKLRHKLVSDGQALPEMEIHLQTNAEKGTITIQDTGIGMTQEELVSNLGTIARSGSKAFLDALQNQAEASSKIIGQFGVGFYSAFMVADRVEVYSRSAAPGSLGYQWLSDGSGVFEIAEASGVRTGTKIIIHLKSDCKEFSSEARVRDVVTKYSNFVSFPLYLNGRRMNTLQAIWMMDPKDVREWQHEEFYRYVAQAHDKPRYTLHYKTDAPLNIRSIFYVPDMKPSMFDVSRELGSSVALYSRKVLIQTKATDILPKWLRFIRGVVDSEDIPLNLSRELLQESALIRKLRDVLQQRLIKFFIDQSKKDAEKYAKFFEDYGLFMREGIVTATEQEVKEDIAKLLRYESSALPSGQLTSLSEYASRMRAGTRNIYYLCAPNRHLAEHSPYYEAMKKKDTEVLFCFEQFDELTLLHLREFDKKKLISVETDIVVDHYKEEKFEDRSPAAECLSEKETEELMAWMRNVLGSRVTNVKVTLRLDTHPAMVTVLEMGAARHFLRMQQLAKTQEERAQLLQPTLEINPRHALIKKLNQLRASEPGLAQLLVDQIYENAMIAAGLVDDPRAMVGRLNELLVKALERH

pKd: 4.59
Substance: purified recombinant human cyclophilin D, P30405 30-207
